One series has as its target mCherry-TIN2S, Q9BSI4-2. Kind of series: LacI-LacO array fluorescence colocalization in cells. To be noted: U2OS 2-6-3 cell line; n > 50 nuclei per construct from 3 biological replicates; parent: est. 0.90; read off a plot.
The target of a further series is Human TIN2 (human) (UniProt Q9BSI4). Kind of series: SEC-MALS; purified proteins or co-expressed, purified complexes at 1 mg ml^−1, 100 µl on Superose 6 Increase 10/300 GL, 0.5 ml min^−1, 25 °C, 50 mM HEPES pH 7.5, 300 mM NaCl, 1 mM TCEP. (In general: Size exclusion chromatography separates by hydrodynamic size, large species first.)
The next series deals with eGFP–TPP1–LacI (human) (UniProt Q96AP0). Kind of series: LacI–LacO array recruitment (fluorescence colocalisation); eGFP–TPP1–LacI constructs tethered to a LacO array in U2-OS 2-6-3 cells, co-transfected with mCherry-TIN2S; fixed 24 h after transfection; fraction of nuclei with mCherry at the single GFP focus.
For series [1], the target named is eGFP–TPP1_(480–544)–LacI (human). The series is described as above.
For series [2], the target named is T1, Human TRF1 (human), P54274.
T1 chain: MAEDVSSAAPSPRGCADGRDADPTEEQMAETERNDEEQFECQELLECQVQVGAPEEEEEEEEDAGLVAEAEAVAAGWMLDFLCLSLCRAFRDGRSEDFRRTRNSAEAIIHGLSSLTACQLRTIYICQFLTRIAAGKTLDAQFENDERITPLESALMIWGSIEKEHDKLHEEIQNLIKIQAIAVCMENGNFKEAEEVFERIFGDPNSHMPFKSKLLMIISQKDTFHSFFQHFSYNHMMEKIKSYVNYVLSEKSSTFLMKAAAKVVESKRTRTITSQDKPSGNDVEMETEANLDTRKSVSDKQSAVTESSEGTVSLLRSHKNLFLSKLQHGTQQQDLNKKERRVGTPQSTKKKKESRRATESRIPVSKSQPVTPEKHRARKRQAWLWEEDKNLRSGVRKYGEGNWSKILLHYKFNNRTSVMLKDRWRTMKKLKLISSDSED
Nature of the series: SEC-MALS; purified proteins or co-expressed, purified complexes at 1 mg ml^−1, 100 µl on Superose 6 Increase 10/300 GL, 0.5 ml min^−1, 25 °C, 50 mM HEPES pH 7.5, 300 mM NaCl, 1 mM TCEP. To be noted: remark: other sources report otherwise.

Series [3] addresses T2, Human TRF2 (human), Q15554.
T2 chain: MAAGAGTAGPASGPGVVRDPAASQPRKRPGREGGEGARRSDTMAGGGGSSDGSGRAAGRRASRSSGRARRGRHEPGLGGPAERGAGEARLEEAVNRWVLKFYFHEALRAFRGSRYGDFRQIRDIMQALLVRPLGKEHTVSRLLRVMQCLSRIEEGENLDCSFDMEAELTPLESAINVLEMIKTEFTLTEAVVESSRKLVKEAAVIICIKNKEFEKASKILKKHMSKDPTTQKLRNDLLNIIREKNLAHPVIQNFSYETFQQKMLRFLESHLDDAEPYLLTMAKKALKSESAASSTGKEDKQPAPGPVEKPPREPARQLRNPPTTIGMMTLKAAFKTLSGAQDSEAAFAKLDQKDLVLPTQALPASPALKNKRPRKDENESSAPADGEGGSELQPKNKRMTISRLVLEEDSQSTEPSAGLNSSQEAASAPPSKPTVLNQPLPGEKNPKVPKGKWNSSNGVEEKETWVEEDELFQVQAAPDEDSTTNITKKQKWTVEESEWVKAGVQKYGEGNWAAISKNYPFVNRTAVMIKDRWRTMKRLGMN
Described as above. To be noted: remark: other sources report otherwise.

A further series has as its target T3, ybbR-tagged human TIN2 (human, UniProt Q9BSI4-2 1-354, Cy3 (from CoA-Cy3, by Sfp phosphopantetheinyl transferase) on the ybbR tag).
T3 construct: The methods put the ybbR tag at the C-terminus of TIN2; the results speak of an N-terminal tag on each protein; also called TIN2 (ybbR tag); source: Tni insect cells (baculovirus), co-expressed, purified as complex, labelled with CoA-Cy3 by Sfp; not shown: His6, N-terminal, cleaved; MBP, N-terminal, cleaved
T3 sequence (looked up): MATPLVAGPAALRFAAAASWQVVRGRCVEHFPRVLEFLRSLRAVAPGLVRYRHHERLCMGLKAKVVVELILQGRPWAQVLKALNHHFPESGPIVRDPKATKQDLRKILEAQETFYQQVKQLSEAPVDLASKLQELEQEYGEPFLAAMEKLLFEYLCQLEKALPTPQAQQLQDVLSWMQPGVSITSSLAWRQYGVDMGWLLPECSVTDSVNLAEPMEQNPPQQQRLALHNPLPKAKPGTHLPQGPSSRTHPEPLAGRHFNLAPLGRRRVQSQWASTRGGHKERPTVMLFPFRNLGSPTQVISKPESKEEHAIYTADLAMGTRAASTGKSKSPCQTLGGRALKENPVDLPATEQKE
Nature of the series: fluorescence intensity of Cy3-labelled ybbR-tagged subunits on SDS-PAGE; purified complexes (5 µM) with one ybbR tag on each subunit labelled with CoA-Cy3 (10 µM) by Sfp (1 µM), 50 mM HEPES pH 7.5, 300 mM KCl, 10 mM MgCl2, 1 mM TCEP, overnight at 4 °C; band intensities normalised to TPP1. To be noted: both partners purified.

The next series addresses T4, Human TIN2 (human, UniProt Q9BSI4-2 1-354).
T4 construct: cDNA cloned into pFastBac1; called full-length in the discussion; not shown: His6, N-terminal, cleaved; MBP, N-terminal, cleaved
T4 sequence (looked up): T3 sequence (looked up)
Kind of series: SEC-MALS; purified proteins or co-expressed, purified complexes at 1 mg ml^−1, 100 µl on Superose 6 Increase 10/300 GL, 0.5 ml min^−1, 25 °C, 50 mM HEPES pH 7.5, 300 mM NaCl, 1 mM TCEP. To be noted: both partners purified.

The next series has as its target TRF2 (Homo sapiens, UniProt A0ACI8RU48 1-541). Kind of series: EMSA (agarose); 500 nM protein; some smearing; Agarose EMSA: 50 mM Tris-HCl pH 8.0, 150 mM KCl, 2 mM MgCl2, 1 mM DTT, 10% glycerol, 0.5 mg/ml BSA, 0.02 mg/ml carrier dsDNA, 30 min 23 C (gel at 4 C); FP: same buffer without carrier DNA, 23 C. To be noted: protein: recombinant; tags: 6xHis N-term; chain copies: 2; label: 5'-32P on long strand (EMSA); 3' overhang 13 nt. A general note: A gel shift assay detects complexes by their altered migration in electrophoresis.

Experimental findings from publication PMC5651854, “Reconstitution of human shelterin complexes reveals unexpected stoichiometry and dual pathways to enhance telomerase processivity” (Nature Communications, 2017) are described below.

eGFP–TPP1–LacI (human), sequence (Q96AP0 whole entry): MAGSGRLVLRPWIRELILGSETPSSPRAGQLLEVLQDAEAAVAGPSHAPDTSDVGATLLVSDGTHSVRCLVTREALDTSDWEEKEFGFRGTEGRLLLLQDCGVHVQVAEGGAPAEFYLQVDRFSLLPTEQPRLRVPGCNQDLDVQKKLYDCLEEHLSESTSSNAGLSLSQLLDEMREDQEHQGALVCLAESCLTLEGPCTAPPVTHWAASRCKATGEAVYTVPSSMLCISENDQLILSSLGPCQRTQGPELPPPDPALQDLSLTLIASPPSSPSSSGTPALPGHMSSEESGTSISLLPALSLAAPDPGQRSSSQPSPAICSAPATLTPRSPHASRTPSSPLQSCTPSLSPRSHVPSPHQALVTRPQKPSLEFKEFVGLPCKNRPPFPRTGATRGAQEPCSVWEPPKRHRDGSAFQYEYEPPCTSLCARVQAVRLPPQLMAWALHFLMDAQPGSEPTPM
eGFP–TPP1_(480–544)–LacI (human), sequence (Q96AP0 whole entry): as above

With “eGFP–TPP1–LacI (from UniProt Q96AP0) NAAIRS 522 (six residues starting at 522 replaced by NAAIRS)”, in the series with mCherry-TIN2S, Q9BSI4-2, the other: fraction of colocalization was 0.87.

Take “eGFP–TPP1–LacI (from UniProt Q96AP0) NAAIRS 480 (six residues starting at 480 replaced by NAAIRS)”: the other: fraction of colocalization with mCherry-TIN2S, Q9BSI4-2 is 0.92.

Take “eGFP–TPP1–LacI (from UniProt Q96AP0) NAAIRS 516 (six residues starting at 516 replaced by NAAIRS)”: the other: fraction of colocalization with mCherry-TIN2S, Q9BSI4-2 came to 0.93.

In the case of “eGFP–TPP1–LacI (from UniProt Q96AP0) NAAIRS 504 (six residues starting at 504 replaced by NAAIRS)”, the other: fraction of colocalization with mCherry-TIN2S, Q9BSI4-2 was found to be 0.92.

As for “eGFP–TPP1–LacI (from UniProt Q96AP0) NAAIRS 539 (six residues starting at 539 replaced by NAAIRS)”, the other: fraction of colocalization with mCherry-TIN2S, Q9BSI4-2 amounted to 0.96.

Turning to “eGFP–TPP1–LacI (from UniProt Q96AP0) NAAIRS 486 (six residues starting at 486 replaced by NAAIRS)”, in the series with mCherry-TIN2S, Q9BSI4-2, the other: fraction of colocalization came out at 0.94.

Regarding “eGFP–TPP1–LacI (from UniProt Q96AP0) NAAIRS 498 (six residues starting at 498 replaced by NAAIRS)”, in the series with mCherry-TIN2S, Q9BSI4-2, the other: fraction of colocalization is 0.88.

“eGFP–TPP1–LacI (from UniProt Q96AP0) NAAIRS 492 (six residues starting at 492 replaced by NAAIRS)”: the other: fraction of colocalization with mCherry-TIN2S, Q9BSI4-2 amounted to 0.93.

In the case of “eGFP–TPP1–LacI (from UniProt Q96AP0) NAAIRS 510 (six residues starting at 510 replaced by NAAIRS)”, the other: fraction of colocalization in the series with mCherry-TIN2S, Q9BSI4-2 amounted to 0.88.

In the case of “eGFP–TPP1–LacI (from UniProt Q96AP0) NAAIRS 534 (six residues starting at 534 replaced by NAAIRS)”, the other: fraction of colocalization with mCherry-TIN2S, Q9BSI4-2 amounted to 0.93.

With “Human TPP1 (from UniProt Q96AP0 1-458) (natural protein)”, in the series with Human TIN2 (human), the stoichiometry N (TPP1 per TIN2) came out at 1.

B1: mCherry-TIN2S (natural protein)
chain: T3 sequence (looked up)
On to B1, for which the fraction of LacO sites with colocalisation (with eGFP–TPP1–LacI (human); in series [1]) was 90% throughout.

B2: Human TRF1, P54274-1 1-439 (natural protein)
chain: T1 chain
Take B2: in series [2], the stoichiometry N (subunits in the oligomer) turned out to be 2.

B3: Human TRF2, Q15554 1-542 (natural protein)
chain: T2 chain
The molecule B3 gave a stoichiometry N (subunits in the oligomer) in series [3] of 2.

B4: ybbR-tagged human TRF2 (natural protein, UniProt Q15554 1-542, looked up)
chain: T2 chain
modifications: Cy3 (from CoA-Cy3, by Sfp phosphopantetheinyl transferase) on the ybbR tag
notes: also called TRF2 (ybbR tag); source: Tni insect cells (baculovirus), co-expressed, purified as complex, labelled with CoA-Cy3 by Sfp
Take B4: the stoichiometry N (as a rule, a count of units in the complex or per binding partner) in the series with ybbR-tagged human TIN2 came out at 2 TRF2 per TIN2.

B5: Human TRF2 (natural protein, UniProt Q15554 1-542, looked up)
chain: T2 chain
notes: called full-length in the discussion; predicted dimer mass printed as 119 kDa; source: Tni insect cells (baculovirus), alone or co-expressed with other shelterin proteins, purified (final SEC)
On to B5, for which, in the series with Human TIN2, the “stoichiometry N” value was determined as 2 TRF2 per TIN2.

B6: C8 (mixed)
DNA 1: GACCATGCTTAGGGTTAGGGTTATCATACAAGTTAGGGTTAGGG
DNA 2: TTGTATGATAACCCTAACCCTAAGCATGGTC
In the case of B6, the binding result with TRF2 was “binds”.
